Data published in patent US20250152746A1, “BASE EDITING OF ANGPTL3 AND METHODS OF USING SAME FOR TREATMENT OF DISEASE” (Verve Therapeutics, Inc., priority 2020, published 2025).
m = 2'-O-methyl; r = 2'-OH (RNA)

Columns and labels:
PCSK9 gene [1] = assay: PCSK9 gRNA/SpCas9 editing in primary cynomolgus hepatocytes (Tables 2, 22); assay type: cell-based, cynomolgus monkey; conditions: SpCas9 mRNA MS002 1:1 by weight; for Cyno Primary Hepatocyte Editing % 100: 100 ng/RNA/mL; for Cyno Primary Hepatocyte Editing % 500: 500 ng/RNA/mL; for Cyno Primary Hepatocyte Editing % 2500: 2500 ng/RNA/mL
PCSK9 gene [2] = assay: PCSK9 gRNA/SpCas9 editing in primary human hepatocytes (Tables 2, 4); assay type: cell-based; conditions: SpCas9 mRNA MS002 1:1 by weight; for Human Primary Hepatocyte Editing % 100: 100 ng/RNA/mL; for Human Primary Hepatocyte Editing % 500: 500 ng/RNA/mL; for Human Primary Hepatocyte Editing % 2500: 2500 ng/RNA/mL
In short: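 Primary human hepatocytes co-transfected with PCSK9 gRNA plus SpCas9 mRNA (1:1 by weight) at 2500, 500 or 100 ng RNA/mL, or 2500–250 ng/mL for tracr-modified guides. Editing at the target site read by amplicon next-generation sequencing of extracted genomic DNA.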

Molecule	Cyno Primary Hepatocyte Editing % 100 (PCSK9 gene [1]) [%]	Cyno Primary Hepatocyte Editing % 500 (PCSK9 gene [1]) [%]	Cyno Primary Hepatocyte Editing % 2500 (PCSK9 gene [1]) [%]	Human Primary Hepatocyte Editing % 100 (PCSK9 gene [2]) [%]	Human Primary Hepatocyte Editing % 500 (PCSK9 gene [2]) [%]	Human Primary Hepatocyte Editing % 2500 (PCSK9 gene [2]) [%]
GA217: PCSK9 gRNA; protospacer GTGGTCAGCGGCCGGGATGC (SEQ ID NO: 211) (nucleic acid, sugars from the 5' end m3 r94 m3, linkages s3 o93 s3 (s phosphorothioate, o phosphodiester), T or U not given here) guide: GUGGUCAGCGGCCGGGAUGCGUUUUAGAGCUAGAAAUAGCAAGUUAAAAUAAGGCUAGUCCGUUAUCAACUUGAAAAAGUGGCACCGAGUCGGUGCUUUU	2.6	10.2	39.21	0.77	2.75	15.31
GA221: PCSK9 gRNA; protospacer TCATGGCACCCACCTGGCAG (SEQ ID NO: 215) (nucleic acid, sugars from the 5' end m3 r94 m3, linkages s3 o93 s3 (s phosphorothioate, o phosphodiester), T or U not given here) guide: UCAUGGCACCCACCUGGCAGGUUUUAGAGCUAGAAAUAGCAAGUUAAAAUAAGGCUAGUCCGUUAUCAACUUGAAAAAGUGGCACCGAGUCGGUGCUUUU	2.82	20.27	57.4	1.11	7.48	29.35
GA218: PCSK9 gRNA; protospacer CGCTGACCACCCCTGCCAGG (SEQ ID NO: 212) (nucleic acid, sugars from the 5' end m3 r94 m3, linkages s3 o93 s3 (s phosphorothioate, o phosphodiester), T or U not given here) guide: CGCUGACCACCCCUGCCAGGGUUUUAGAGCUAGAAAUAGCAAGUUAAAAUAAGGCUAGUCCGUUAUCAACUUGAAAAAGUGGCACCGAGUCGGUGCUUUU	5.42	19.95	58.66	3.81	8.96	31.71
GA220: PCSK9 gRNA; protospacer GTGCTCAACTGCCAAGGGAA (SEQ ID NO: 214) (nucleic acid, sugars from the 5' end m3 r94 m3, linkages s3 o93 s3 (s phosphorothioate, o phosphodiester), T or U not given here) guide: GUGCUCAACUGCCAAGGGAAGUUUUAGAGCUAGAAAUAGCAAGUUAAAAUAAGGCUAGUCCGUUAUCAACUUGAAAAAGUGGCACCGAGUCGGUGCUUUU	3.13	12.39	45.17	2.17	9.12	21.87
GA219: PCSK9 gRNA; protospacer GGCAGGGGTGGTCAGCGGCC (SEQ ID NO: 213) (nucleic acid, sugars from the 5' end m3 r94 m3, linkages s3 o93 s3 (s phosphorothioate, o phosphodiester), T or U not given here) guide: GGCAGGGGUGGUCAGCGGCCGUUUUAGAGCUAGAAAUAGCAAGUUAAAAUAAGGCUAGUCCGUUAUCAACUUGAAAAAGUGGCACCGAGUCGGUGCUUUU	0.35	11.89	48.67	1.28	4.57	15.97
